For two sequences, binding results are on record in paper PMC12022260.

The target in the series is T1, His-FleQ (Azotobacter vinelandii AEIV) (UniProt C1DQF1).
T1 sequence: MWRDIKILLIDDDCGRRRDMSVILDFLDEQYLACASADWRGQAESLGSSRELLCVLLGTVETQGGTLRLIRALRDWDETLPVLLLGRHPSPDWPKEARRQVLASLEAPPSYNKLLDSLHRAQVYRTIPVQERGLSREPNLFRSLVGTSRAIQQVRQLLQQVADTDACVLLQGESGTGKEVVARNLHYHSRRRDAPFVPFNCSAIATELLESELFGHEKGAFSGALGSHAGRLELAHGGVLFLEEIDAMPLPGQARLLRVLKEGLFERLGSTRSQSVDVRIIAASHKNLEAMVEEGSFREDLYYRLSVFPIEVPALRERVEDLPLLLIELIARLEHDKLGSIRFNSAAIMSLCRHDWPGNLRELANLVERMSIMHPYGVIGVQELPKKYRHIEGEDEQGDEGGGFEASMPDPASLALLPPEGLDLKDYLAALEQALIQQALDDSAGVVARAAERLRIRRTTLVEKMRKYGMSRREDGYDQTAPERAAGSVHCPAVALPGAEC
Description: EMSA. The following applies: 10 mM Tris pH 8, 8 mM Mg acetate, 50 mM KCl, 10 ug/ml BSA, 5% glycerol; 100 ng DNA in 20 ul; room temperature 20 min; 6% native acrylamide gel, 0.5x-1x TBE …. (In EMSA bound probe runs differently from free probe, usually more slowly.)

As for “GCGAATTCGGACGCCGCGAGTAAAACGAAAAAGCAAGCCGCCTGAACCCACACTTGCGCTCCCGGCGTTTTGTACCATGCTTTTCCTGAATCATTGTGCTAAGGAGAAAAGTATGAATAAAAGAGGAGCGTTGTTGAGCCTGCTGGATCCAGG (double strand) [yebF regulatory region]”, the binding result is recorded as “no binding”.

As for “CCGAAAATGCTGATACGCATTGCGTTCACCTCGTCCTTATTTAACGAAAAGTCGACGACTAAAACCCTTGGTCGTCACATTGCCGGCGGCCTTCAAGGGAAATTTGCAGGCCGAATTATAGTCAATAAAATGTCGTGCCAAATGAGCTGGCGTTAAAAGGCAGGTTGCAAGGGATGCTTTATAACTGCTCAAGCGATCCATGTTCG (double strand) [algD proximal region]”, the binding entry was “binds”.
